This data set in a line: label from the status in PepcDB records.
Consider “MESSAINIAIVVVYLLAMLAFGWWGKSRTKNNSDFLVAGRRLGPFLYTGTMAAVVLGGASTVGGVGLGYKFGISGMWLVVAIGSGVLLLSLLFAGTIQKLKIYTVSQMLTLRYGSTATQTSGIVMLAYTLMLCATSTGAYATIFVVLFGWERWLAIAIGGAIVLVYSTIGGMWSITLADQVQFVIKTVGIFFLMLPFALNAAGGLDGIRARVDESFFDIGGIGLQTIITYFVVYTLGLLIGQDIWQRVFTAKTPTVARWGGATAGVYCILYGFAGALIGMAASVALSGVEIAAKDDVYAEVATRLLPIGIGGLVLAAAVAAMMSTASGALIAAATVARADVMPFVASWFGKKVDTSDSDNPEHDVKANRYWVLGLGIVAIIIAISTKDVVAALTIAYDILVGGLLVAIIGGLVWKRGTGIAAAWSMAAGSVITLGTMIILEINAEVPLDGIYANEPIYFGLIASAVVYVVVSLLSKPTDPAVMKAWTDRVAGTRVAEEELTTPAS”, for which the protein production result is “failed”.
For “MESTKSYDIPILRNVSRSFSVHYRDYLQRCGIFVPKEGNSSGPDAYVVFHNGQTRYVVGFSFKFYHKSEFSKRNIEEEAKKFFKGVVSVLNDESFSSVQLRFQFVMVVCTSYGRSVVFSSEEQNIVEDASYLVTEHSSGSTLNESSRSCLQLVIVSQRNLEMYLGRDNVETLRKIGEASREEFSKDFSVWCETVFESMSNEYVSPLEQSNVTLRVARNIRPRTNEENRMQIEELQTAMKVERSVAASSSLSSSFDWNTFLREYCGLSEEDVAYCLPKVEDIDMDELPAVTKEILRDLGIDKPALRLKIRSSIRSYLANER” the value was “not failed”; for “MESTLSASNMQDPSSSPLEKCLGSANGNGDLDSEEGSSLEETGFNWGEYLEETGASAAPHTSFKHVEISIQSNFQPGMKLEVANKNNPDTYWVATIITTCGQLLLLRYCGYGEDRRADFWCDVVIADLHPVGWCTQNNKVLMPPDAIKEKYTDWTEFLIRDLTGSRTAPANLLEGPLRGKGPIDLITVGSLIELQDSQNPFQYWIVSVIENVGGRLRLRYVGLEDTESYDQWLFYLDYRLRPVGWCQENKYRMDPPSEIYPLKMASEWKCTLEKSLIDAAKFPLPMEVFKDHADLRSHFFTVGMKLETVNMCEPFYISPASVTKVFNNHFFQVTIDDLRPEPSKLSMLCHADSLGILPVQWCLKNGVSLTPPKGYSGQDFDWADYHKQHGAQEAPPFCFRNTSFSRGFTKNMKLEAVNPRNPGELCVASVVSVKGRLMWLHLEGLQTPVPEVIVDVESMDIFPVGWCEANSYPLTAPHKTVSQKKRKIAVVQPEKQLPPTVPVKKIPHDLCLFPHLDTTGTVNGKYCCPQLFINHRCFSGPYLNKGRIAELPQSVGPGKCVLVLKEVLSMIINAAYKPGRVLRELQLVEDPHWNFQEETLKAKYRGKTYRAVVKIVRTSDQVANFCRRVCAKLECCPNLFSPVLISENCPENCSIHTKTKYTYYYGKRKKISKPPIGESNPDSGHPKPARRRKRRKSIFVQKKRRSSAVDFTAGSGEESEEEDADAMDDDTASEETGSELRDDQTDTSSAEVPSARPRRAVTLRSGSEPVRRPPPERTRRGRGAPAASSAEEGEKCPPTKPEGTEDTKQEEEERLVLESNPLEWTVTDVVRFIKLTDCAPLAKIFQEQDIDGQALLLLTLPTVQECMELKLGPAIKLCHQIERVKVAFYAQYAN”, “failed”.
On to “MESWKVNLISVWFGCFFTGLAISQILPFLPLYVSQLGVTSHEALSMWSGLTFSVTFLVSAIVSPMWGSLADRKGRKLMLLRASLGMAIAILLQAFATNVWQLFILRAIMGLTSGYIPNAMALVASQVPRERSGWALSTLSTAQISGVIGGPLLGGFLADHVGLRMVFFITAILLTISFLVTLFLIKEGVRPQVSKSERLTGKQVFASLPYPGLVISLFFTTLVIQLCNGSIGPILALFIKSMAPDSNNIAFLAGMIAAVPGVSALISAPRLGKLGDRIGTSRILLATLCCAVVMFFAMSFVTTPLQLGTLRFLLGFADGAMLPAVQTLLLKYSSDSVTGRIFGYNQSFMYLGNVAGPLIGASVSAMAGFRWVFIATAIIVFINLWQLAWMLRQTRRANA”, for which the protein production entry is on record as “not failed”.
With “METESEQNSNSTNGSSSSGGSSRPQIAQMSLYERQAVQALQALQRQPNAAQYFHQFMLQQQLSNAQLHSLAAVQQATIAASRQASSPNTSTTQQQTTTTQASINLATTSAAQLISRSQSVSSPSATTLTQSVLLGNTTSPPLNQSQAQMYLRPQLGNLLQVNRTLGRNVPLASQLILMPNGAVAAVQQEVPSAQSPGVHADADQVQNLAVRNQQASAQGPQMQGSTQKAIPPGASPVSSLSQASSQALAVAQASSGATNQSLNLSQAGGGSGNSIPGSMGPGGGGQAHGGLGQLPSSGMGGGSCPRKGTGVVQPLPAAQTVTVSQGSQTEAESAAAKKAEADGSGQQNVGMNLTRTATPAPSQTLISSATYTQIQPHSLIQQQQQIHLQQKQVVIQQQIAIHHQQQFQHRQSQLLHTATHLQLAQQQQQQQQQQQQQQQPQATTLTAPQPPQVPPTQQVPPSQSQQQAQTLVVQPMLQSSPLSLPPDAAPKPPIPIQSKPPVAPIKPPQLGAAKMSAAQQPPPHIPVQVVGTRQPGTAQAQALGLAQLAAAVPTSRGMPGTVQSGQAHLASSPPSSQAPGALQECPPTLAPGMTLAPVQGTAHVVKGGATTSSPVVAQVPAAFYMQSVHLPGKPQTLAVKRKADSEEERDDVSTLGSMLPAKASPVAESPKVMDEKSSLGEKAESVANVNANTPSSELVALTPAPSVPPPTLAMVSRQMGDSKPPQAIVKPQILTHIIEGFVIQEGAEPFPVGCSQLLKESEKPLQTGLPTGLTENQSGGPLGVDSPSAELDKKANLLKCEYCGKYAPAEQFRGSKRFCSMTCAKRYNVSCSHQFRLKRKKMKEFQEANYARVRRRGPRRSSSDIARAKIQGKCHRGQEDSSRGSDNSSYDEALSPTSPGPLSVRAGHGERDLGNPNTAPPTPELHGINPVFLSSNPSRWSVEEVYEFIASLQGCQEIAEEFRSQEIDGQALLLLKEEHLMSAMNIKLGPALKICAKINVLKET” the entry was “failed”.
For “METISKEFKSKVSLFWEAFNKNDFESAKTQCNQMKKSFSDEANPHYLLGIIYFEEKRFDKSIIELKLALKKDSERKLGGYIYYVIGLNYSKNTFSNMENLNSIYDIELARNAFESALTYENFNESNITELSQIYRNKFKLIQLFQKGLKKFPTKTSFYIKLSAIYKKNGNISERESLLLDAKENIKSFHILFELGELYLEKSQYKCSREHFYLAEKLREGSGLEFAVQVMIGNTHVNEGNPNLANEYYINAFHKEKNSCNFWFGLFGILASSAETSFADLKNILEEMEVTSQLTIEEWYGEMPLYYGSNYFSFDFPIDEKHLINRLNLFKKQQRDTDILGKIELIKASLYEFSSEDTKYIKCLKSAINYFSQHSYDFIFNKLAARYDYLLSHLQEEGKSVNTLINEIVDYLEDDYSFRKEYIEYLPTIVTILFEEKKHKKIIEIKNIFTEKQIDKADIWFHVGYAFNELGRPKESKYAYECNIKINGECTSTHNNLALLLENEGKNSDAVAMFQKALMINVDDEKLQSNLQNALDKQKAKSLLTYKNEAIDKSFVGAVGLLKSETFFSMETLLNFIDRSKKENSFNDGILSIQDEMFPDLLRTNLVKSLELKNDWLIKNYIALTEEIDEYGIPYYQVNPYLEPEIVKLKRMTVESELPKEWTEGIGNITIFKLDELDYFSIKHKISKINKKFKPLVMRDFNELIFNHLVGNRKAVVVLSGSFVELLLTYYCEKKRIKAVEYTCKDSAKPKKKKLYDCVLFDLISFIEEKRIFGNDFFLLSNLSRVYRNFIHPGVELKNSLDKSKSDLCFISSLEILKKII” the value was “failed”; for “METLHPFSHLPISDHRFVVQEMVSLHSSSSGSWTKEENKMFERALAIYAEDSPDRWFKVASMIPGKTVFDVMKQYSKLEEDVFDIEAGRVPIPGYPAASSPLGFDTDMCRKRPSGARGSDQDRKKGVPWTEEEHRRFLLGLLKYGKGDWRNISRNFVVSKTPTQVASHAQKYYQRQLSGAKDKRRPSIHDITTGNLLNANLNRSFSDHRDILPDLGFIDKDDTEEGVIFMGQNLSSENLFSPSPTSFEAAINFAGENVFSAGA”, “failed”; for “METLKKNWTKFILSFIMLVLAIICVYTLSTYKSSEKNTGFLKMGGGFNKSFNSSSRKLNGQPNMKGAPAQHPSNSNANSKSAPPNNFNHNVSKPQRMMGGGEFNSSSKYSSEVLIYSLGFFAIVICAYLAIVKKKIKISTENRGFILAAFLVIGFLFRIIVGLLITGYVTDIGLYKQWALTAAKNLAAVYTNGSVDYPPVYLYVLSIIGKIASSSFMSNYSTLLIKLPSIIADIFSAYFVYRLSIKRFSYETSFALTLFYLFNPAILINSTLWGQADSFFTLLVILAVYFISEDKIVPSSIFFALSVLMKPQGIIFLPLVLFWYIKNKNLKSIFKSIASGFITTIIVLAPFSISKGNITWIFDLYTREVSEYPYASNNAFNFYSLIGANRVKDSNTMFIFSYHTWGMLFIVLITLISGFFYLKSKNKYASTLAALIQVVGVFNFSVGMHERYMFTAVLASILAYIYFKDKRLLLISLLLSFINYANMHTILFNRLNMNVNSSSSMLIVFISLLNITTFVYLIKVCFDLCLKKDIKVTEDIQNTL”, “failed”.
With “METLSNSILTVQIAEHGAELQSIKKDGKEYLWQGDAKFWGRRSPVLFPIVGRVWNNKYRHAGNTYEIGQHGFARDMDFKLTYKEDKGAVYWLESTPDTLGKFPFPFRLLVGYLLEENKITVKWRVENLGAMDMYFQIGAHPAFYFPEFDAATKDRGFFVFDRKSDLEYIMPTEKGCVSPERHVLKLNKEGLMPIDIHTFDCDTYIFDNKQLKKITLLDKKKKPHISLEFNSPLVALWSPTKTHPDCPFVCIEPWYGRCDSVGYSGELKDREWIQKLEPKETFDVEYKIIIE” the entry was “failed”; with “METLSVIHTVANRLRELNPDMDIHISSTDAKVYIPTGQQVTVLIHYCGSVFAEPENTDATVQKQLIRISATVIVPQISDAINALDRLRRSLGGIELPDCDRPLWLESEKYIGDAANFCRYALDMTASTLFIAEQESKDSPLLTIVNYEEIQ”, “not failed”; with “METMFDTLLQLPLFQGLCHEDFTSILDKVKLHFIKHKAGETIIKSGNPCTQLCFLLKGEISIVTNAKENIYTVIEQIEAPYLIEPQSLFGMNTNYASSYVAHTEVHTVCISKAFVLSDLFRYDIFRLNYMNIVSNRAQNLYSRLWDEPTLDLKSKIIRFFLSHCEKPQGEKTFKVKMDDLARCLDDTRLNISKTLNELQDNGLIELHRKEILIPDAQKLL”, “not failed”.
As to “METTPVTSCTIIDATDRSIRQTLGETSTLARLIWVDAGLASPPLCSGLARCGRCRVRITEAAPAPHEDDREFFSAEDISAGWRLACRHAPAHGMVVHVPLPVMPHRHASRPKHPGPFRLAVDLGTTSLQWSLLAPDGTVAAQGSETNPQMGAGSDVMSRIAMARSDKGRGRLRELVLQALRRIVADVEGTPATADAVPPAGSGDEPTTACGYESRVEELCVAGNTAMTAILADESVEGLASAPYRLEMRGGTALALPGLPPAWIPPLPAPFVGGDLSAGYLAVLTDHAPAFPFVLADLGTNGEFVLALSPERTLVTSVALGPALEGIGLTFGTVAQRGAITSFTLTPGGLVPYVLDGGEADGISGTGYISLVHALLRAGLLDVDGRFIQSPSSPLAARMARSIVSHRGEPCLPLARGLYLAARDIEEILKVKAAFSLAFERLLATAQMPSHALSGIHLAGALGQHALPADLEGLGFIPPGSGGRTRAVGNTSLRGAELLLTSPPLRDTLNTWREGCTVVDLTAAPDFSAAFLRHMHFHFLEHHHHHH”, the protein production entry is “failed”.
For “METTQKDELSSFLSVLPPVDFCCVYGSTLHPNNQDKSKMVDYILGVSDPIKWHSANLKMNSDHYASWMVHLGGARLITNVADKVGVGVHFNPFVNWNDRKLKYGVVRMHDLVQDILDWKRFYLSGRLQKPVHMLVDNLDIEDVNSVNKRAAISAALLLLPSKFTEEDLYAKICSLSYMGDLRMFFAEDTNKVNKIVKGQFDLFQSMYKPFLEECETKNLLRFSSAEASHTKLVQDSSLSATRSLVSSLPASVRSQMGKSLGEKKFVSETGRVMGEVCISSREEAAKCMEKVMRRRVMVSSGRQAVSGFLAAGAINATMYLSQKMRKAWNSRA” the value was “failed”.

For the origin of these results see a protein production outcome set (Wang et al. 2014).
